Positions count from the first letter of the chain named.

From patent publication US20180346602A1 come the findings set out here.

Assay [1] addresses anti-VEGF/ANG2 antibody (wild-type IgG1 subclass) (human) [IgG part: P01857]. Put plainly: sandwich ELISA assay B; capture on SA plate; tracer M1.7.10-Dig; analyte 25 ng/mL.
The target is the same in assay [2]. Description: sandwich ELISA assay B; capture on SA plate; tracer M1.7.10-Dig; analyte 50 ng/mL.
For assay [3], the target named is target antibodies. Put plainly: depletion of target antibody from sample; concentration before depletion 100.00 µg/mL.
For assay [4], the target named is target antibodies. Put plainly: depletion of target antibody from sample; concentration before depletion 1000.00 µg/mL.
Assay [5] has as its target anti-VEGF/ANG2 antibody (IgG1 subclass with mutations P329G/L234A/L235A/I253A/H310A/H435A) [IgG part: P01857]. Put plainly: sandwich ELISA assay E; tracer M1.7.10-Dig; analyte 1) at 12.5 ng/mL.
Assay [6] has as its target anti-VEGF/ANG2 antibody (IgG1 subclass with mutations P329G/L234A/L235A) [IgG part: P01857]. Put plainly: sandwich ELISA assay E; tracer M1.7.10-Dig; analyte 2) at 6.25 ng/mL.
Assay [7] concerns the target anti-VEGF/ANG2 antibody (IgG1 subclass with mutations P329G/L234A/L235A/I253A/H310A/H435A) [IgG part: P01857]. Put plainly: sandwich ELISA assay E; tracer M1.7.10-Dig; analyte 1) at 3.124 ng/mL.
Assay [8] addresses anti-VEGF/ANG2 antibody (IgG1 subclass with mutations P329G/L234A/L235A) [IgG part: P01857]. Description: sandwich ELISA assay E; tracer M1.7.10-Dig; analyte 2) at 3.124 ng/mL.
Assay [9] deals with anti-VEGF/ANG2 antibody (IgG1 subclass with mutations P329G/L234A/L235A/I253A/H310A/H435A) [IgG part: P01857]. Description: sandwich ELISA assay E; tracer M1.7.10-Dig; analyte 1) at 1.5625 ng/mL.
In assay [10] the target is anti-Dig antibody (IgG1 subclass with mutations P329G/L234A/L235A) [IgG part: P01857]. Put plainly: sandwich ELISA assay D; tracer M1.7.10-Dig; analyte conc. not printed (row 8 of 8).
The target of assay [11] is anti-VEGF/ANG2 antibody (IgG1 subclass with mutations P329G/L234A/L235A/I253A/H310A/H435A) [IgG part: P01857]. Put plainly: sandwich ELISA in serum; capture M1.3.17, tracer M1.7.24; anti-VEGF/ANG2 antibody 2500 ng/mL.
For assay [12] the target is unchanged. Put plainly: sandwich ELISA in serum; capture M1.3.17, tracer M1.7.24; anti-VEGF/ANG2 antibody 78.125 ng/mL.
Assay [13] deals with anti-VEGF/ANG2 antibody (IgG1 subclass with mutations P329G/L234A/L235A/I253A/H310A/H435A) (human) [IgG part: P01857]. Put plainly: sandwich ELISA in serum; M1.3.17-Bi capture on SA plate; tracer anti-human kappa M1.7.10-Dig; analyte 5 ng/mL.
For assay [14], the target named is anti-VEGF/ANG2 antibody (IgG1 subclass with mutations P329G/L234A/L235A/I253A/H310A/H435A) [IgG part: P01857]. Description: bridging ELISA; biotinylated and digoxigenylated anti-VEGF/ANG2 antibody bridged by M1.3.17 at 0 ng/mL (blank).
Assay [15] has as its target anti-VEGF/ANG2 antibody (IgG1 subclass with mutations P329G/L234A/L235A/I253A/H310A/H435A) (human) [IgG part: P01857]. Description: sandwich ELISA in serum; M1.3.17-Bi capture on SA plate; tracer anti-human kappa M1.7.10-Dig; analyte 0.625 ng/mL.
Assay [16] shares this target. Description: sandwich ELISA in serum; M1.3.17-Bi capture on SA plate; tracer anti-human kappa M1.7.10-Dig; analyte 0.3125 ng/mL.
The target of assay [17] is cytokine (IL-2) antibody conjugate with the mutations P329G, L234A, L235A, I253A, H310A, and H435A. Description: sandwich ELISA in serum; capture anti-IL2 antibody, tracer M1.7.24; conjugate 625 ng/mL.
For assay [18] the target is unchanged. Description: sandwich ELISA in serum; capture anti-IL2 antibody, tracer M1.7.24; conjugate 1250 ng/mL.
The target is the same in assay [19]. Description: sandwich ELISA in serum; capture anti-IL2 antibody, tracer M1.7.24; conjugate 2500 ng/mL.
Assay [20] has the same target. Description: sandwich ELISA in serum; capture anti-IL2 antibody, tracer M1.7.24; conjugate 312.5 ng/mL.
Assay [21] has the same target. Description: sandwich ELISA in serum; capture anti-IL2 antibody, tracer M1.7.24; conjugate 39.0625 ng/mL.
For assay [22], the target named is anti-VEGF/ANG2 antibody (IgG1 subclass with mutations P329G/L234A/L235A/I253A/H310A/H435A) [IgG part: P01857]. Description: sandwich ELISA in serum; capture M1.7.10-Bi, tracer M1.7.24-Dig; anti-VEGF/ANG2 antibody 0.3125 ng/mL.
For assay [23] the target is unchanged. Description: sandwich ELISA in serum; capture M1.7.10-Bi, tracer M1.7.24-Dig; anti-VEGF/ANG2 antibody 0.0390625 ng/mL.

B1: anti-AAA variant Fc-region antibody M1.6.22 (antibody, V domains shown)
VH: EVQLVESGGDLVKPGGSLKLSCAASGFTFSSYGMSWVRQTPDKRLEWVATISSGGSYIYYPDSVKGRFTISRDNAKNTLYLQMSSLKSEDTAMYYCARLGMITTGYAMDYWGQGTSVTVSS
VL: DVLMTQTPLSLPVSLGDQASISCRSSQTIVHSTGHTYLEWFLQKPGQSPKLLIYKVSNRFSGVPDRFSGSGSGTDFTLKISRVEAEDLGVYYCFQGSHVPYTFGGGTKLEIK
For the molecule B1, the signal [OD405 nm] in assay [1] worked out at 0.047 OD405 nm; in assay [2] it was 0.049 OD405 nm. Besides, the concentration after depletion in assay [3] amounted to 0.0143 µg/mL; in assay [4], 0.0163 µg/mL. Besides, the results for the recovery [%] in assay [3] and in assay [4] were 0.014% and 0.002%, respectively.

B2: anti-variant (human) Fc-region antibody M1.3.17 (antibody, V domains shown)
VH: EVKLLESGGGLVQPGGSLKLSCAASGIDFRRYWMNWVRQAPGKGLEWIGEIDPDSSTINYTPSLKDKFIISRDNAKNTMYLQMRKVRSEDTALYYCARPYDYGAWFAYWGQGTLVTVSA
VL: QAVVTQESALTTSPGETVTLTCRSTTGAVTTSNYANWVQEKPDHLFTGLIGGTNKRAPGVPARFSGSLIGDKAALTITGAQTEDEAIYFCALWYSDHWVFGGGTKLTVL
As to B2, the signal [OD405 nm] in [5] turned out to be 1.09 OD405 nm; in assay [6] it was 0.577 OD405 nm; in assay [7] it was 0.383 OD405 nm; in assay [8], 0.316 OD405 nm; in assay [9], 0.224 OD405 nm; in assay [11], 2.77 OD405 nm. The signal [OD405 nm] in assay [12] amounted to 0.301 OD405 nm; in assay [13], 1.6 OD405 nm; in [14] it was 0.046 OD405 nm; in assay [15], 0.314 OD405 nm; in assay [16], 0.181 OD405 nm. Moreover, the signal 10% cynomolgus serum [OD405 nm] in assay [10] stood at 0.044 OD405 nm. Further, in assay [10], the signal 10% human serum [OD405 nm] was found to be 2.51 OD405 nm. The signal buffer [OD405 nm] in assay [10] was found to be 0.031 OD405 nm. Besides, the concentration after depletion in assay [3] came out at 0.0173 µg/mL; in assay [4], 0.0169 µg/mL. The recovery [%] in [3] came to 0.017%; in assay [4], 0.002%.

B3: anti-variant (human) Fc-region antibody M1.7.24 (antibody, V domains shown)
VH: B2 VH with I27F, R30S, D52T, M79L, R84I, A97V, Y108S
VL: B2 VL with T25S, D96N
With B3, the signal [OD405 nm] in assay [5] was determined as 1.06 OD405 nm; in [6], 0.528 OD405 nm; in assay [7], 0.363 OD405 nm; in [8] it was 0.298 OD405 nm; in assay [9], 0.208 OD405 nm; in assay [1], 0.041 OD405 nm. The signal [OD405 nm] in assay [2] came out at 0.04 OD405 nm; in assay [17], 0.811 OD405 nm; in assay [18] it was 1.46 OD405 nm; in [19], 2.35 OD405 nm; in assay [20] it was 0.451 OD405 nm; in [21], 0.101 OD405 nm. The signal [OD405 nm] in assay [22] amounted to 0.261 OD405 nm; in [23], 0.072 OD405 nm. Also, the signal 10% cynomolgus serum [OD405 nm] in assay [10] stood at 0.031 OD405 nm. In assay [10], this molecule registered a signal 10% human serum [OD405 nm] of 2.45 OD405 nm. Further, the signal buffer [OD405 nm] in assay [10] stood at 0.033 OD405 nm.
